# In patent CN112442122A (SHANGHAI NOVAMAB BIOPHARMACEUTICALS CO LTD, dated 2021):
# Tests used:
# [1] = target: T1, 人PD-1 (on CHOZn/PD-1 stably transfected cells) (human, UniProt Q15116 25-288); test: flow cytometry; competition with 50ug/ml hPD-L1-Biotin on CHOZn/PD-1 cells
# T1 construct: whole, on cells; also called hPD-1; GS-J2/PD-1
# [2] = target: T1, 人PD-1 (on CHOZn/PD-1 stably transfected …); test: flow cytometry; binding to CHOZn/PD-1 cells, anti Human IgG-FITC detection
# T1 sequence (Q15116 25-288): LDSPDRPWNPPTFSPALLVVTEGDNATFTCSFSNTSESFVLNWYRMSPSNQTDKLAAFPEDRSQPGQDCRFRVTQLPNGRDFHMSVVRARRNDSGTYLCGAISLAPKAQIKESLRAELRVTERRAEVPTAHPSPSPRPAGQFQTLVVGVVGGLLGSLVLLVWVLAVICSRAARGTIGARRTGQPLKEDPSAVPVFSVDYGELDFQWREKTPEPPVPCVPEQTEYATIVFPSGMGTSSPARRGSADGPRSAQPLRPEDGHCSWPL
binder,measurement,setting,value
"PD-1Nb-Fc融合蛋白 (Fc fusion, also called PD-1纳米抗体; not shown: IgG4 Fc supplied by the pFUSE-IgG4 vector (Invivogen)) QVQLQESGGGSVQAGGSLRLSCAASGYTYSSYYMGWFRQAPGKEREGVAAIDRDGRTSYADSVKGRFTISRDNAKNTLYLQMNSLKPEDTAMYTCAAVLVLSGYYSDYGLVPPPFEYNYWGQGTQVTVSS",IC50,[1],1.3 µg/mL
same,EC50,[2],1.06 µg/mL
